Measured values from the supplement of paper PMC7877785.
± gives the uncertainty stated by the source.

Experiment: self-splicing fitness, log relative to wild type (ln ratio); higher = more splicing; Tetrahymena group I intron in knt gene, E. coli kanamycin selection, DiMSum; sequences stand for … in CUCUCU…GGAGGGAAAAGUUAUCAGGCAUGCACCUGGUAGCUAGUCUUUAAACCAAUAGAUUGCAUCGGUUUAAAAGGCAAGACCGUCAAAUUGCGGGAAAGGGGUCAACAGCCGUUCAGUACCAAGUCUCAGGGGAAACUUUGAGAUGGCCUUGCAAAGGGUAUGGUAAUAAGCUGACGGACAUGGUCCUAACCACGCAGCCAAGUCCUAAGUCAACAGAUCUUCUGUUGAUAUGGAUGCAGUUCACAGACUAAAUGUCGGUCGGGGAAGAUGUAUUCUUCUCAUAAGAUAUAGUCGGACCUCUCCUUAAUGGGAGCUAGCGGAUGAAGUGAUGCAACACUGGAGCCGCUGGGAACUAAUUUGUAUGCGAAAGUAUAUUGAUUAGUUUUGGAGUACUCGUGGUCG
In short: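 Six replicate transformations of E. coli BL21(DE3) with a pET-22b(+) library were grown overnight at 37°C or 30°C. The library randomised all eight P1ex-region intron nucleotides, the intron lying in the knt kanamycin-resistance gene, and plates were LB agar with or without 25 μg/mL kanamycin plus 100 μg/mL carbenicillin, 50 μM IPTG and 0.2% rhamnose. Pooled colonies were amplicon-sequenced on an Illumina HiSeq 2500, and fitness is the DiMSum error-weighted combination of wild-type-normalised replicate fold changes, kanamycin versus none.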

Row | Sequence | self-splicing fitness (ln) (30 °C) | self-splicing fitness (ln) (37 °C)
1 | UUUCAGCAAUAUUACGGAGA | -1.26 ± 0.14 | -1.13 ± 0.22
2 | AAGGAGCAAUAUUACGUAUG | -3.31 ± 0.34 | -3.58 ± 0.33
3 | UGAUAGCAAUAUUACGUUCG | -0.432 ± 0.076 | 0.4 ± 0.1
4 | GGAAAGCAAUAUUACGGCAC | -0.927 ± 0.12 | -0.0107 ± 0.14
5 | AUCCAGCAAUAUUACGCUAA | -0.717 ± 0.093 | -1.13 ± 0.077
6 | CGUGAGCAAUAUUACGGCCA | -2.35 ± 0.49 | –
7 | CCGUAGCAAUAUUACGAUUU | -3.55 ± 0.17 | -2.08 ± 0.17
8 | UGUUAGCAAUAUUACGCCAA | -1.32 ± 0.19 | -1.4 ± 0.23
9 | UGUUAGCAAUAUUACGCAGA | -0.741 ± 0.46 | -0.752 ± 0.3
10 | UGAUAGCAAUAUUACGAUGU | – | -2.04 ± 0.34
11 | GCCUAGCAAUAUUACGGAUC | -0.351 ± 0.12 | -0.096 ± 0.16
12 | CUUUAGCAAUAUUACGUCGU | -2.27 ± 0.36 | -3.05 ± 0.37
13 | UGAGAGCAAUAUUACGGGAG | -3.96 ± 0.29 | -1.93 ± 0.21
14 | ACGCAGCAAUAUUACGUGCU | -3.65 ± 0.18 | -2.9 ± 0.19
15 | UCUGAGCAAUAUUACGGUAG | -3.93 ± 0.33 | -1.67 ± 0.18
16 | AGUUAGCAAUAUUACGUUUU | -3.11 ± 0.18 | -1.41 ± 0.15
17 | CCGAAGCAAUAUUACGGUUG | -1.84 ± 0.059 | -0.955 ± 0.072
18 | UGGUAGCAAUAUUACGGCCU | -0.807 ± 0.18 | -0.532 ± 0.39
19 | GCAAAGCAAUAUUACGUCGU | -2.22 ± 0.095 | -2.27 ± 0.15
20 | GGCGAGCAAUAUUACGCAUU | -1.13 ± 0.11 | -0.998 ± 0.14

Row | Sequence | self-splicing fitness (ln) (30 °C) | self-splicing fitness (ln) (37 °C)
21 | GCAAAGCAAUAUUACGGCUC | -0.596 ± 0.062 | 0.305 ± 0.081
22 | ACGUAGCAAUAUUACGGUCC | -1.64 ± 0.15 | -0.357 ± 0.15
23 | AGGUAGCAAUAUUACGCAUA | -1.71 ± 0.019 | -0.787 ± 0.034
24 | GAAAAGCAAUAUUACGGGGG | -3.11 ± 0.21 | -1.15 ± 0.17
25 | CUUUAGCAAUAUUACGUAAU | -2.49 ± 0.16 | -2.78 ± 0.33
26 | GCCAAGCAAUAUUACGAAUA | -2.96 ± 0.17 | -2.72 ± 0.18
27 | AAAGAGCAAUAUUACGGGGA | -2.48 ± 0.35 | -1.81 ± 0.28
28 | GCGCAGCAAUAUUACGACAC | -0.738 ± 0.38 | –
29 | ACGGAGCAAUAUUACGUCCG | -3.13 ± 0.37 | -2.36 ± 0.42
30 | GUAGAGCAAUAUUACGAGCU | -2.67 ± 0.22 | -1.66 ± 0.23
31 | GGUCAGCAAUAUUACGUAUU | -0.159 ± 0.055 | 0.511 ± 0.071
32 | CUUAAGCAAUAUUACGUAUA | -2.9 ± 0.23 | -3.19 ± 0.29
33 | GCUAAGCAAUAUUACGGCAU | -2.13 ± 0.1 | -0.863 ± 0.12
34 | AGAUAGCAAUAUUACGCCCG | -0.427 ± 0.23 | -0.478 ± 0.24
35 | UCUAAGCAAUAUUACGUCUC | – | -3.38 ± 0.4
36 | GGUUAGCAAUAUUACGGGUA | -1.11 ± 0.22 | -1.39 ± 0.19
37 | GCCGAGCAAUAUUACGGAGC | -2.69 ± 0.44 | –
38 | UAACAGCAAUAUUACGCACC | -2.33 ± 0.29 | -1.88 ± 0.43
39 | AUACAGCAAUAUUACGCGGG | -3.46 ± 0.15 | -1.75 ± 0.11
